Reference: paper PMC9482650, “Quantitative fragmentomics allow affinity mapping of interactomes” (Nature Communications, 2022)

T1: ARHGEF11, O15085
T1 sequence (O15085 42-136, limits assumed, looked up): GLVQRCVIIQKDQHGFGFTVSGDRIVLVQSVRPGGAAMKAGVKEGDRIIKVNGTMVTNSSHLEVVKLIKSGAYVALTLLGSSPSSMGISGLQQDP

T2: DFNB31_2, Q9P202
T2 sequence (Q9P202 274-371, limits assumed, looked up): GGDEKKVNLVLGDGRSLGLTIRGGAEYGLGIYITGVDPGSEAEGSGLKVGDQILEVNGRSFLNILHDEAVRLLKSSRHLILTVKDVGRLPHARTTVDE

T3: GRIP1_2, Q9Y3R0
T3 sequence (Q9Y3R0 145-248, limits assumed, looked up): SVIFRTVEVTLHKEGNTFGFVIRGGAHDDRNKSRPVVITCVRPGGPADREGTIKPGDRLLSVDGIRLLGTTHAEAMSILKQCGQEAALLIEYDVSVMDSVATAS

T4: LIN7B, Q9HAP6
T4 sequence (Q9HAP6 88-185, limits assumed, looked up): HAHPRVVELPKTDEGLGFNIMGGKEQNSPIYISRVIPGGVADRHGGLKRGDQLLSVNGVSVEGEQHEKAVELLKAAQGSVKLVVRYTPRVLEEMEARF

T5: LNX2_3, Q8N448
T5 sequence (Q8N448 463-564, limits assumed, looked up): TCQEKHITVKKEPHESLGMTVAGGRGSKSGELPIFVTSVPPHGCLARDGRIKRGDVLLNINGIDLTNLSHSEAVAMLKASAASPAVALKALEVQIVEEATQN

T6: PDZD2_2, O15018
T6 sequence (O15018 329-429, limits assumed, looked up): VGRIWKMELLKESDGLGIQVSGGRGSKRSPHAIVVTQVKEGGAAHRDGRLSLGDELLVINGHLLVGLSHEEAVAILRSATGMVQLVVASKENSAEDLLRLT

T7: PDZRN3_1, Q9UPQ7
T7 sequence (Q9UPQ7 244-349, limits assumed, looked up): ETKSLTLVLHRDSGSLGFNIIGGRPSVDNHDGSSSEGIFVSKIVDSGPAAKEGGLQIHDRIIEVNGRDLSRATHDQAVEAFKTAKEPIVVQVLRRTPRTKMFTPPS

T8: PTPN13_1, Q12923
T8 sequence (Q12923 1088-1188, limits assumed, looked up): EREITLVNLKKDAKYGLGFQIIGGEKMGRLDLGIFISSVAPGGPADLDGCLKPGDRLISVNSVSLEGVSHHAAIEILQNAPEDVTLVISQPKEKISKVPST

T9: SHANK1, Q9Y566
T9 sequence (Q9Y566 658-767, limits assumed, looked up): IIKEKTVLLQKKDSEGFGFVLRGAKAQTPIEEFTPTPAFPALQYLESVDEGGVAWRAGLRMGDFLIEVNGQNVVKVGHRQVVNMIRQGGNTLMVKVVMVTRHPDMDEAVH

T10: SNTB1, Q13884
T10 sequence (Q13884 107-205, limits assumed, looked up): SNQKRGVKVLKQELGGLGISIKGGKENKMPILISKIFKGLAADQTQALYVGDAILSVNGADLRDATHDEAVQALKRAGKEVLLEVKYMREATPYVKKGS

T11: TX1BP3, O14907
T11 sequence (O14907 10-122, limits assumed, looked up): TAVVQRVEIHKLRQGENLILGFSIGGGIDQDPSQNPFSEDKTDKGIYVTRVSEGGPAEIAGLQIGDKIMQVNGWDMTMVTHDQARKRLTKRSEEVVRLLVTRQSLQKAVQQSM


Experiments:
Test in all cases: holdup assay
Parameters in all cases: key: below the threshold = too weak to quantify, mostly under pKd 3.1 to 4
Conditions in all cases: plain residues with an end cap or a label only (N-terminal biotin on a linker: ado-ado)
AHNAK1, Q09666 = molecular target: AHNAK1, Q09666
ARHGEF11, O15085 = molecular target: T1, ARHGEF11, O15085
DFNB31_2, Q9P202 = molecular target: T2, DFNB31_2, Q9P202
GRASP, Q7Z6J2 = molecular target: GRASP, Q7Z6J2
GRIP1_2, Q9Y3R0 = molecular target: T3, GRIP1_2, Q9Y3R0
GRIP2_3, Q9C0E4 = molecular target: GRIP2_3, Q9C0E4
HTRA1, Q92743 = molecular target: HTRA1, Q92743
Inadl_10, Q8NI35 = molecular target: Inadl_10, Q8NI35
Inadl_3, Q8NI35 = molecular target: Inadl_3, Q8NI35
Inadl_4, Q8NI35 = molecular target: Inadl_4, Q8NI35
Inadl_5, Q8NI35 = molecular target: Inadl_5, Q8NI35
Inadl_8, Q8NI35 = molecular target: Inadl_8, Q8NI35
LAP2, Q96RT1 = molecular target: LAP2, Q96RT1
LIN7B, Q9HAP6 = molecular target: T4, LIN7B, Q9HAP6
LNX2_3, Q8N448 = molecular target: T5, LNX2_3, Q8N448
MAGI3_2, Q5TCQ9 = molecular target: MAGI3_2, Q5TCQ9
PARD3_3, Q8TEW0 = molecular target: PARD3_3, Q8TEW0
PDZD2_2, O15018 = molecular target: T6, PDZD2_2, O15018
PDZRN3_1, Q9UPQ7 = molecular target: T7, PDZRN3_1, Q9UPQ7
PICK1, Q9NRD5 = molecular target: PICK1, Q9NRD5
PTPN13_1, Q12923 = molecular target: T8, PTPN13_1, Q12923
SCRIB_2, Q14160 = molecular target: SCRIB_2, Q14160
SHANK1, Q9Y566 = molecular target: T9, SHANK1, Q9Y566
SNTB1, Q13884 = molecular target: T10, SNTB1, Q13884
TJP2_1, Q9UDY2 = molecular target: TJP2_1, Q9UDY2
TX1BP3, O14907 = molecular target: T11, TX1BP3, O14907

PICK1, Q9NRD5, sequence (Q9NRD5 17-115): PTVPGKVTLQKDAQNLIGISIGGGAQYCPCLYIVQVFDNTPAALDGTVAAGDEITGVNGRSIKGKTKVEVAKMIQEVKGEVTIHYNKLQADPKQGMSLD
Inadl_10, Q8NI35, sequence (Q8NI35 1673-1763): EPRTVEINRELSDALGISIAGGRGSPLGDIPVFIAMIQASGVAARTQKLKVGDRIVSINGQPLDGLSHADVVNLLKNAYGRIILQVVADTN
HTRA1, Q92743, sequence (Q92743 360-477): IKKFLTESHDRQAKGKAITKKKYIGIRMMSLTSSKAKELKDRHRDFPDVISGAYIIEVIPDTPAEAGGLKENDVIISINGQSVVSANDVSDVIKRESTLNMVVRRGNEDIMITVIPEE
PARD3_3, Q8TEW0, sequence (Q8TEW0 582-685): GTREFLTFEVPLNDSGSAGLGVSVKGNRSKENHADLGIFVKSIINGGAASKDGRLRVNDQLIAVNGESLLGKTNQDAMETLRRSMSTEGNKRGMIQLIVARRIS
TJP2_1, Q9UDY2, sequence (Q9UDY2 24-128): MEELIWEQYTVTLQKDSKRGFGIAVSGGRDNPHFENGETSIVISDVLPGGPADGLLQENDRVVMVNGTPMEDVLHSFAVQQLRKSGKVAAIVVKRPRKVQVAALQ
MAGI3_2, Q5TCQ9, sequence (Q5TCQ9 398-503): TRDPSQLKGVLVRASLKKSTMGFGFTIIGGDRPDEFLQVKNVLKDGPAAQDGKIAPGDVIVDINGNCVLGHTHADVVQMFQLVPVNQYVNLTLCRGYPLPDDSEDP
AHNAK1, Q09666, sequence (Q09666 4-100): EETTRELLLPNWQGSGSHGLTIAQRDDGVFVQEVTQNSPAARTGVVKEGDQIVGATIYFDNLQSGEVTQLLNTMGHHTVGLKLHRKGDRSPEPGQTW
Inadl_4, Q8NI35, sequence (Q8NI35 547-651): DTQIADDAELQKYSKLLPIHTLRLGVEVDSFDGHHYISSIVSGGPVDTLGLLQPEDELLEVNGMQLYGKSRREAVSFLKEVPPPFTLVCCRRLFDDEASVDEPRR
GRIP2_3, Q9C0E4, sequence (Q9C0E4 238-339): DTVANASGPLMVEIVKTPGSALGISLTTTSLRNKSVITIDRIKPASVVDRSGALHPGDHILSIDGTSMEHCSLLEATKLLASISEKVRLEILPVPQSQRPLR
Inadl_5, Q8NI35, sequence (Q8NI35 673-780): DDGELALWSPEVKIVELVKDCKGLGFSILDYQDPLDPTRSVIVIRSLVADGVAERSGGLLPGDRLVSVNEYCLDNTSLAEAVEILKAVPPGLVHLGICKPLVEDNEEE
Inadl_8, Q8NI35, sequence (Q8NI35 1425-1530): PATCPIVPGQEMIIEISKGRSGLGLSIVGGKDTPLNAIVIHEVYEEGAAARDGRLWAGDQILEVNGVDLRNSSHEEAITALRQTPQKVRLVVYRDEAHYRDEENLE
SCRIB_2, Q14160, sequence (Q14160 857-960): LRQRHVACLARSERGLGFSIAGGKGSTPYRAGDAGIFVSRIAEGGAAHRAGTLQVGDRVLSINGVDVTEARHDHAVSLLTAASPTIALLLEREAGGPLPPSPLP
GRASP, Q7Z6J2, sequence (Q7Z6J2 96-193): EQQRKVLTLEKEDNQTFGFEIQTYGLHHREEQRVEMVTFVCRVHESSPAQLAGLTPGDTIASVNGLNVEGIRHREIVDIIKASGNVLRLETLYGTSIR
LAP2, Q96RT1, sequence (Q96RT1 other isoform, or with tags, fused parts or gaps): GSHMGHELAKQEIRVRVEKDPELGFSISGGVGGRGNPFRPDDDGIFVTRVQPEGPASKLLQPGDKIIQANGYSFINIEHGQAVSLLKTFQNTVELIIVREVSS
Inadl_3, Q8NI35, sequence (Q8NI35 359-469): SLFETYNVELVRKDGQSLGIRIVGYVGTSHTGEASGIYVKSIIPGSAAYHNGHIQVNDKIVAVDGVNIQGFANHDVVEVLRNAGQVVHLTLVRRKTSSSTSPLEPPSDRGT

| pKd (AHNAK1, Q09666) | pKd (ARHGEF11, O15085) | pKd (DFNB31_2, Q9P202) | pKd (GRASP, Q7Z6J2) | pKd (GRIP1_2, Q9Y3R0) | pKd (GRIP2_3, Q9C0E4) | pKd (HTRA1, Q92743) | pKd (Inadl_10, Q8NI35) | pKd (Inadl_3, Q8NI35) | pKd (Inadl_4, Q8NI35) | pKd (Inadl_5, Q8NI35) | pKd (Inadl_8, Q8NI35) | pKd (LAP2, Q96RT1) | pKd (LIN7B, Q9HAP6) | pKd (LNX2_3, Q8N448) | pKd (MAGI3_2, Q5TCQ9) | pKd (PARD3_3, Q8TEW0) | pKd (PDZD2_2, O15018) | pKd (PDZRN3_1, Q9UPQ7) | pKd (PICK1, Q9NRD5) | Binder | other results |
| --- | --- | --- | --- | --- | --- | --- | --- | --- | --- | --- | --- | --- | --- | --- | --- | --- | --- | --- | --- | --- | --- |
| below the threshold | 4.31 | below the threshold | 3.55 | below the threshold | below the threshold | 4.32 | below the threshold | 3.86 | below the threshold | below the threshold | below the threshold | 4.32 | 4.04 | below the threshold | 5.48 | 3.54 | 4.2 | 4.25 | 4.16 | TGLWKHETTV [ADGRA3, Q8IWK6] | pKd (PTPN13_1, Q12923): below the threshold; pKd (SCRIB_2, Q14160): 4.56; pKd (SHANK1, Q9Y566): below the threshold; pKd (SNTB1, Q13884): 4.84; pKd (TJP2_1, Q9UDY2): 3.65; pKd (TX1BP3, O14907): 5.08 |
| below the threshold | below the threshold | below the threshold | below the threshold | below the threshold | below the threshold | 4.47 | below the threshold | below the threshold | below the threshold | below the threshold | below the threshold | below the threshold | 3.53 | below the threshold | below the threshold | below the threshold | below the threshold | below the threshold | below the threshold | QKAPTKEFYA [SDC2, P34741] | pKd (PTPN13_1, Q12923): below the threshold; pKd (SCRIB_2, Q14160): below the threshold; pKd (SHANK1, Q9Y566): 3.53; pKd (SNTB1, Q13884): below the threshold; pKd (TJP2_1, Q9UDY2): below the threshold; pKd (TX1BP3, O14907): below the threshold |
| below the threshold | below the threshold | below the threshold | below the threshold | below the threshold | below the threshold | 4.32 | below the threshold | below the threshold | below the threshold | below the threshold | below the threshold | below the threshold | 3.6 | below the threshold | 3.73 | below the threshold | below the threshold | below the threshold | below the threshold | PYPTADHMLA [JUP, P14923] | pKd (PTPN13_1, Q12923): below the threshold; pKd (SCRIB_2, Q14160): below the threshold; pKd (SHANK1, Q9Y566): below the threshold; pKd (SNTB1, Q13884): below the threshold; pKd (TJP2_1, Q9UDY2): below the threshold; pKd (TX1BP3, O14907): 4.01 |
| below the threshold | 4.65 | below the threshold | 3.93 | below the threshold | below the threshold | 4.12 | below the threshold | below the threshold | below the threshold | below the threshold | below the threshold | 3.54 | below the threshold | below the threshold | below the threshold | below the threshold | 4.65 | below the threshold | below the threshold | AAVENKVTDL [PLXNB1, O43157] | pKd (PTPN13_1, Q12923): below the threshold; pKd (SCRIB_2, Q14160): 3.52; pKd (SHANK1, Q9Y566): below the threshold; pKd (SNTB1, Q13884): 4.63; pKd (TJP2_1, Q9UDY2): below the threshold; pKd (TX1BP3, O14907): 4.77 |
| below the threshold | 3.69 | below the threshold | below the threshold | below the threshold | below the threshold | 4.3 | below the threshold | 3.55 | below the threshold | below the threshold | 3.49 | below the threshold | below the threshold | below the threshold | 5.64 | below the threshold | 3.76 | 3.71 | below the threshold | KPGKGSETVV [FZD4, Q9ULV1] | pKd (PTPN13_1, Q12923): below the threshold; pKd (SCRIB_2, Q14160): 3.83; pKd (SHANK1, Q9Y566): below the threshold; pKd (SNTB1, Q13884): 4.78; pKd (TJP2_1, Q9UDY2): below the threshold; pKd (TX1BP3, O14907): below the threshold |
